Results on nine substances are retold here after paper PMC5861437.

The target of assay [1] is H-subunit of the restriction endonuclease CglI (H.CglI), wild type (Corynebacterium glutamicum). Kind of assay: SEC + other: SAXS.
For assay [2], the target named is H.CglI H282A + H290A (H/H motif double mutant) (Corynebacterium glutamicum). Kind of assay: SEC.
For assay [3], the target named is H.CglI L1 (V169A), Loop 163–172 mutant (Corynebacterium glutamicum). Kind of assay: SEC. (In general: In gel filtration, larger molecules generally elute earlier.)
In assay [4] the target is H.CglI Q405A (Motif VI mutant) (Corynebacterium glutamicum). Kind of assay: SEC.
For assay [5], the target named is H.CglI R408A (Motif VI mutant) (Corynebacterium glutamicum). Kind of assay: SEC.
For assay [6], the target named is H.CglI H290A (H/H motif mutant) (Corynebacterium glutamicum). Kind of assay: SEC.
Assay [7] addresses H.CglI H282A (H/H motif mutant) (Corynebacterium glutamicum). Briefly: SEC.
Assay [8] has as its target H.CglI R379A (Motif V mutant) (Corynebacterium glutamicum). Kind of assay: SEC.
Assay [9] has as its target H.CglI ΔL (a deletion of the residues 165–172), Loop 163–172 mutant (Corynebacterium glutamicum). Briefly: SEC.

With “H-subunit of the restriction endonuclease CglI (H.CglI), wild type (natural protein)”, in assay [1], the stoichiometry N – broadly, a count of units in the complex or per binding partner – amounted to 2.

With “H.CglI H282A + H290A (H/H motif double mutant) (natural protein)”, the stoichiometry N in assay [2] was determined as 2.

Consider “H.CglI L1 (V169A), Loop 163–172 mutant (natural protein)”, for which the stoichiometry N in [3] came out at 2.

“H.CglI Q405A (Motif VI mutant) (natural protein)” displayed a stoichiometry N in [4] of 2.

The substance “H.CglI R408A (Motif VI mutant) (natural protein)” returned a stoichiometry N in assay [5] of 2.

For “H.CglI H290A (H/H motif mutant) (natural protein)”, the stoichiometry N in [6] came out at 2.

On to “H.CglI H282A (H/H motif mutant) (natural protein)”, for which the stoichiometry N in [7] was found to be 2.

With “H.CglI R379A (Motif V mutant) (natural protein)”, the stoichiometry N in assay [8] was 2.

Consider “H.CglI ΔL (a deletion of the residues 165–172), Loop 163–172 mutant (natural protein)”, for which, in [9], the stoichiometry N came out at 2.
